Measured values taken from paper PMC3773400, “Intracellular Secretory Leukoprotease Inhibitor Modulates Inositol 1,4,5-Triphosphate Generation and Exerts an Anti-Inflammatory Effect on Neutrophils of Individuals with Cystic Fibrosis and Chronic Obstructive Pulmonary Disease” (BioMed Research International, 2013).

Legend:
[1] = biological target: calpain 1 (UniProt P07384 1-714); assay: enzyme inhibition kinetics (Calpain-Glo protease assay); cleavage of the calpain substrate Suc-LLVY-aminoluciferin, luminescence; calpastatin 0-80 nM, rhSLPI 0-640 nM; Ki by global curve fit in GraphPad Prism 4.03; conditions: both partners purified
[2] = biological target: calpain 2 (UniProt P17655 20-700); assay: as above; conditions: both partners purified

Chain of calpain 1 (P07384 2-714, chain 1 of 2): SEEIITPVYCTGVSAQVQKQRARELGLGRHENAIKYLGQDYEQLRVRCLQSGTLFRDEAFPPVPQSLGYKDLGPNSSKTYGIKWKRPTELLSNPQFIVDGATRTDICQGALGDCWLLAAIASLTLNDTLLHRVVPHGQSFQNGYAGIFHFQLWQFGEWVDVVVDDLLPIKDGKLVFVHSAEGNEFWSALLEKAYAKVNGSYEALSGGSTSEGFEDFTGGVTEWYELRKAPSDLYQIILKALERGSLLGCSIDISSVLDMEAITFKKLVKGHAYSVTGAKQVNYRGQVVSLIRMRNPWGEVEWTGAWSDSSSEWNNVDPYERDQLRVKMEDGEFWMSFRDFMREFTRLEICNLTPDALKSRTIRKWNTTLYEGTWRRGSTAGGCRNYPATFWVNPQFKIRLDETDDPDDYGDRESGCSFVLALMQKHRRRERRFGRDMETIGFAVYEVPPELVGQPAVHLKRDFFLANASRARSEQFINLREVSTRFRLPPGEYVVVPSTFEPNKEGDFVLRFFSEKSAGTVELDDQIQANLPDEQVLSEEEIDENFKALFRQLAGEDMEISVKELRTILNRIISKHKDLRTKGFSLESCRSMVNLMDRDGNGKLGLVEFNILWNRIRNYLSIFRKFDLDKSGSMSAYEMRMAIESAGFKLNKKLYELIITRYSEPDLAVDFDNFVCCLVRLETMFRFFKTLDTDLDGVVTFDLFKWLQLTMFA
Chain of calpain 1 (P04632 whole entry, chain 2 of 2, further chain): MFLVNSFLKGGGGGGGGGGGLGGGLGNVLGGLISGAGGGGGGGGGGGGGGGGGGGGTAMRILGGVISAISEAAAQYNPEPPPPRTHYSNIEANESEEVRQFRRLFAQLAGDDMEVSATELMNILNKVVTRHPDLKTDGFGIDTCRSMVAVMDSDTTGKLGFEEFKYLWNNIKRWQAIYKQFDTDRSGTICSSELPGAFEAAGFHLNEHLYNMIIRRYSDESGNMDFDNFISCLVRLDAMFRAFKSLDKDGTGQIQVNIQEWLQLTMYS

Ki [1]: 5.55 nM
Ki [2]: 1.55 nM
B1: calpastatin (natural protein)
chain: MNPTETKAIPVSQQMEGPHLPNKKKHKKQAVKTEPEKKSQSTKLSVVHEKKSQEGKPKEHTEPKSLPKQASDTGSNDAHNKKAVSRSAEQQPSEKSTEPKTKPQDMISAGGESVAGITAISGKPGDKKKEKKSLTPAVPVESKPDKPSGKSGMDAALDDLIDTLGGPEETEEENTTYTGPEVSDPMSSTYIEELGKREVTIPPKYRELLAKKEGITGPPADSSKPIGPDDAIDALSSDFTCGSPTAAGKKTEKEESTEVLKAQSAGTVRSAAPPQEKKRKVEKDTMSDQALEALSASLGTRQAEPELDLRSIKEVDEAKAKEEKLEKCGEDDETIPSEYRLKPATDKDGKPLLPEPEEKPKPRSESELIDELSEDFDRSECKEKPSKPTEKTEESKAAAPAPVSEAVCRTSMCSIQSAPPEPATLKGTVPDDAVEALADSLGKKEADPEDGKPVMDKVKEKAKEEDREKLGEKEETIPPDYRLEEVKDKDGKPLLPKESKEQLPPMSEDFLLDALSEDFSGPQNASSLKFEDAKLAAAISEVVSQTPASTTQAGAPPRDTSQSDKDLDDALDKLSDSLGQRQPDPDENKPMEDKVKEKAKAEHRDKLGERDDTIPPEYRHLLDDNGQDKPVKPPTKKSEDSKKPADDQDPIDALSGDLDSCPSTTETSQNTAKDKCKKAASSSKAPKNGGKAKDSAKTTEETSKPKDD
modifications: Paper names only 'calpastatin (endogenous calpain inhibitor)'. Supplier, species, isoform and limits are not stated. Full-length human canonical form is assumed; a commercial single inhibitory domain
